Substitutions are numbered along the chain they refer to. Names may count otherwise.
T1: TNFR1 (Homo sapiens, UniProt P19438)
T1 chain: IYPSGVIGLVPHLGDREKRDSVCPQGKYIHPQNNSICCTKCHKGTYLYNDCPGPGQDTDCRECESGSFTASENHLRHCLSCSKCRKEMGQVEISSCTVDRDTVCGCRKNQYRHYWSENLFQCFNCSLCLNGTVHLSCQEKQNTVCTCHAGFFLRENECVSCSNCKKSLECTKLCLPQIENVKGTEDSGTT

B1: K66S (designed binder)
chain: MTLQELLREEALRRAEAEAFRYALELLAEKFPEQKEYLLDLAEEIESQIRSLSGVDVEDVRKFLDSEWAWVKELLAEHPAELAEVEAARAARLAELRAEVEAKVAA
B2: E36I (designed binder)
chain: B1 chain with E36I, S66K
B3: V71H (designed binder)
chain: B1 chain with S66K, V71H
B4: I45C (designed binder)
chain: B1 chain with I45C, S66K
B5: R13M (designed binder)
chain: B1 chain with R13M, S66K
B6: V55K (designed binder)
chain: B1 chain with V55K, S66K
B7: A102H (designed binder)
chain: B1 chain with S66K, A102H
B8: A98W (designed binder)
chain: B1 chain with S66K, A98W
B9: S53M (designed binder)
chain: B1 chain with S53M, S66K
B10: R8E (designed binder)
chain: B1 chain with R8E, S66K
B11: E25T (designed binder)
chain: B1 chain with E25T, S66K
B12: E77R (designed binder)
chain: B1 chain with S66K, E77R
B13: E73K (designed binder)
chain: B1 chain with S66K, E73K
B14: E77G (designed binder)
chain: B1 chain with S66K, E77G
B15: A76I (designed binder)
chain: B1 chain with S66K, A76I
B16: V71A (designed binder)
chain: B1 chain with S66K, V71A
B17: K66H (designed binder)
chain: B1 chain with S66H
B18: D59Y (designed binder)
chain: B1 chain with D59Y, S66K
B19: R50H (designed binder)
chain: B1 chain with R50H, S66K
B20: E43S (designed binder)
chain: B1 chain with E43S, S66K
B21: R8A (designed binder)
chain: B1 chain with R8A, S66K
B22: E29N (designed binder)
chain: B1 chain with E29N, S66K
B23: A87E (designed binder)
chain: B1 chain with S66K, A87E
B24: K103T (designed binder)
chain: B1 chain with S66K, K103T
B25: E77A (designed binder)
chain: B1 chain with S66K, E77A
B26: A94K (designed binder)
chain: B1 chain with S66K, A94K
B27: L12P (designed binder)
chain: B1 chain with L12P, S66K
B28: A69S (designed binder)
chain: B1 chain with S66K, A69S
B29: A98N (designed binder)
chain: B1 chain with S66K, A98N
B30: L96C (designed binder)
chain: B1 chain with S66K, L96C
B31: D40E (designed binder)
chain: B1 chain with D40E, S66K
B32: P79R (designed binder)
chain: B1 chain with S66K, P79R
B33: E46V (designed binder)
chain: B1 chain with E46V, S66K
B34: L26H (designed binder)
chain: B1 chain with L26H, S66K
B35: L75F (designed binder)
chain: B1 chain with S66K, L75F
B36: A19D (designed binder)
chain: B1 chain with A19D, S66K
B37: E84W (designed binder)
chain: B1 chain with S66K, E84W
B38: E43D (designed binder)
chain: B1 chain with E43D, S66K
B39: L96F (designed binder)
chain: B1 chain with S66K, L96F
B40: A105P (designed binder)
chain: B1 chain with S66K, A105P
B41: P79K (designed binder)
chain: B1 chain with S66K, P79K
B42: T2M (designed binder)
chain: B1 chain with T2M, S66K
B43: I45N (designed binder)
chain: B1 chain with I45N, S66K
B44: L7Q (designed binder)
chain: B1 chain with L7Q, S66K
B45: A19I (designed binder)
chain: B1 chain with A19I, S66K
B46: Q4G (designed binder)
chain: B1 chain with Q4G, S66K
B47: E33C (designed binder)
chain: B1 chain with E33C, S66K
B48: R8V (designed binder)
chain: B1 chain with R8V, S66K
B49: A102L (designed binder)
chain: B1 chain with S66K, A102L
B50: D40W (designed binder)
chain: B1 chain with D40W, S66K
B51: T2K (designed binder)
chain: B1 chain with T2K, S66K
B52: F31I (designed binder)
chain: B1 chain with F31I, S66K
B53: V85L (designed binder)
chain: B1 chain with S66K, V85L
B54: P32T (designed binder)
chain: B1 chain with P32T, S66K
B55: E99I (designed binder)
chain: B1 chain with S66K, E99I
B56: P32W (designed binder)
chain: B1 chain with P32W, S66K
B57: E33G (designed binder)
chain: B1 chain with E33G, S66K
B58: R89C (designed binder)
chain: B1 chain with S66K, R89C
B59: W68E (designed binder)
chain: B1 chain with S66K, W68E

Biological target: T1, TNFR1
Assay: yeast display SC50

apparent Kd (screen) [nM]	Binder
0.49	B1
2.48	B2
0.539	B3
2.48	B4
0.304	B5
16.7	B6
1.16	B7
0.49	B8
1.27	B9
0.49	B10
0.405	B11
0.49	B12
0.539	B13
0.593	B14
0.653	B15
0.49	B16
1.05	B17
3	B18
0.539	B19
0.49	B20

apparent Kd (screen) [nM]	Binder
0.869	B21
0.956	B22
0.446	B23
0.956	B24
0.539	B25
0.653	B26
1.05	B27
0.718	B28
0.869	B29
0.49	B30
0.593	B31
0.869	B32
0.49	B33
0.593	B34
1.27	B35
1.16	B36
0.593	B37
0.79	B38
0.539	B39
0.79	B40

apparent Kd (screen) [nM]	Binder
0.593	B41
0.49	B42
4.83	B43
8.56	B44
0.956	B45
0.49	B46
0.593	B47
0.539	B48
0.79	B49
0.49	B50
0.718	B51
0.956	B52
2.73	B53
0.539	B54
0.49	B55
0.49	B56
0.79	B57
0.653	B58
2.73	B59

— PMC12416549 (2024)
